Results on two substances are retold here after paper PMC1894825.

The data set has as its system Lsr2 (Mycobacterium tuberculosis H37Rv). As to the kind of experiment: EMSA.

Take 16S rRNA gene 200-bp amplicon: the Kd (as a rule, the equilibrium constant for the complex coming apart) was found to be 1000 nM.

With PiniBAC 227-bp amplicon, the Kd was found to be 1000 nM.
